The RNAGym collection of RNA variant scans (doi:10.7554/elife.80360)

B1: HDV Ribozyme (parent)
chain: GGCCGGCAUGGUCCCAGCCUCCUCGCUGGCGCCGGCUGGGCAACAUUCCGAGGGGACCGUCCCCUCGGUAAUGGCGAAUGGGACCCA

Variants of: B1
Assay: self-cleavage, relative activity (ratio to wild type); higher = more cleavage; co-transcriptional

| Variant | self-cleavage |
| --- | --- |
| GGCCGGCACGGUCCCAGCCUCCUCGCUGGCGCCGGCUGGGCAACAUUCCGAGGGAACCGUCCCCUCGGUAAUGGCGAAUGGGACCCA [U9C G55A] | 1.27 |
| GGCCGGCACGGUCCCAGCCUCCUCGCUGGCGCCGGCUGGGCAACAUUCCGAGGGCACCGUCCCCUCGGUAAUGGCGAAUGGGACCCA [U9C G55C] | 0.703 |
| GGCCGGCACGGUCCCAGCCUCCUCGCUGGCGCCGGCUGGGCAACAUUCCGAGGGUACCGUCCCCUCGGUAAUGGCGAAUGGGACCCA [U9C G55U] | 1.2 |
| GGCCGGCAGGGUCCCAGCCUCCUCGCUGGCGCCGGCUGGGCAACAUUCCGAGGGGACCGUCCCCUCGGUAAUGGCGAAUGGGAACCA [U9G C84A] | 0.554 |
| GGCCGGCACGGUCCCAGCCUCCUCGCUGGCGCCGGCUGGGCAACAUACCGAGGGGACCGUCCCCUCGGUAAUGGCGAAUGGGACCCA [U9C U47A] | 1.11 |
| GGCCGGCACGGUCCCAGCCUCCUCGCUGUCGCCGGCUGGGCAACAUUCCGAGGGGACCGUCCCCUCGGUAAUGGCGAAUGGGACCCA [U9C G29U] | 0.115 |
| GGCCGGCACGGUCCCAGCCUCCUCGCUGCCGCCGGCUGGGCAACAUUCCGAGGGGACCGUCCCCUCGGUAAUGGCGAAUGGGACCCA [U9C G29C] | 0.138 |
| GGCCGGCAGGGUCCCAGCCUCCUCGCUGGCGCCGGCUGGGCAACAUUCCGAGGGGACCGUCCCCUCGGUAAUGGCGAAUGGGACCCA [U9G] | 1.02 |
| GGCCGGCACGGUCCCAGCCUCCUCGCUGGCGCCGGCUGGGCAACAUUCCGAGCGGACCGUCCCCUCGGUAAUGGCGAAUGGGACCCA [U9C G53C] | 1.15 |
| GGCCGGCAGGGUCCCAGCCUCCUCGCUGGCGCUGGCUGGGCAACAUUCCGAGGGGACCGUCCCCUCGGUAAUGGCGAAUGGGACCCA [U9G C33U] | 0.87 |
| GGCCGGCAGGGUCCCAGCCUCCUCGCUGGCGCCGGCUGGGCAACAUUCCGAGGGGCCCGUCCCCUCGGUAAUGGCGAAUGGGACCCA [U9G A56C] | 0.462 |
| GGCCGGCAGGGUCCCAGCCUCCUCGCUGGCGCCGGUUGGGCAACAUUCCGAGGGGACCGUCCCCUCGGUAAUGGCGAAUGGGACCCA [U9G C36U] | 0.864 |
| GGCCGGCAGGGUCCCAGCCUCCUCGCUGGCGCCGGAUGGGCAACAUUCCGAGGGGACCGUCCCCUCGGUAAUGGCGAAUGGGACCCA [U9G C36A] | 0.401 |
| GGCCGGCACGGUCCCAGCCUCCUCGCUGGCGCCGGCUGGGCAACAGUCCGAGGGGACCGUCCCCUCGGUAAUGGCGAAUGGGACCCA [U9C U46G] | 1.19 |
| GGCCGGCAGGGUCCCAGCAUCCUCGCUGGCGCCGGCUGGGCAACAUUCCGAGGGGACCGUCCCCUCGGUAAUGGCGAAUGGGACCCA [U9G C19A] | 0.208 |
| GGCCGGCAGGGUCCCAGCCUCCUCGCUGGCGCCGGCUGGGCAACAUUCCGAGGGGACUGUCCCCUCGGUAAUGGCGAAUGGGACCCA [U9G C58U] | 1.2 |
| GGCCGGCAGGGUCCCAGCCUCCUCGCUGGCGCCGGCUGGGCAACAUUCCGAGGGGACCGUCUCCUCGGUAAUGGCGAAUGGGACCCA [U9G C62U] | 0.731 |
| GGCCGGCACGGUCCCAGCCUCCUCGCUGGCGCCGGCUGGGCAACAUUCCGAGGCGACCGUCCCCUCGGUAAUGGCGAAUGGGACCCA [U9C G54C] | 1.11 |
| GGCCGGCACGGUCCCAGCCUCCUCGCUGGCGCCGGCUGGGCAACAUUCCGAGGUGACCGUCCCCUCGGUAAUGGCGAAUGGGACCCA [U9C G54U] | 0.937 |
| GGCCGGCACGGUCCCAGCCUCCUCGCUGGCGCCGGCUGGGCAACAUUCCGAGGGGACCGUCCCCUCGGUAAUGGCCAAUGGGACCCA [U9C G76C] | 1.11 |
| GGCCGGCAGGGUCCCAGCCUCCUCGCUGGCGCCGGCUGGGCAAAAUUCCGAGGGGACCGUCCCCUCGGUAAUGGCGAAUGGGACCCA [U9G C44A] | 0.415 |
| GGCCGGCACGGUCCCAGCCGCCUCGCUGGCGCCGGCUGGGCAACAUUCCGAGGGGACCGUCCCCUCGGUAAUGGCGAAUGGGACCCA [U9C U20G] | 0.443 |

| Variant | self-cleavage |
| --- | --- |
| GGCCGGCAGGGUCCCAGCCUCCUCGCUGGCGCCGGCUGGGCAACAUUACGAGGGGACCGUCCCCUCGGUAAUGGCGAAUGGGACCCA [U9G C48A] | 1.25 |
| GGCCGGCAGGGUCCCAGCCUCCUCGCUGGCGCCGGCUGGGCAACAUUGCGAGGGGACCGUCCCCUCGGUAAUGGCGAAUGGGACCCA [U9G C48G] | 0.997 |
| GGCCGGCACGGUCCCAGCCUCCUCGCUGGCGCCGGCUGGGCAACAUUCCGAGGGGACCGUCCCCUCGGUAAUUGCGAAUGGGACCCA [U9C G73U] | 0.383 |
| GGCCGGCAGGGUCCCAGCCUCCUCGCUGGCGCCGGCUGGGCAACAUUCCGAGGGGACCGUCCCCUCGGUAAUGGCGAAUGGGACCCG [U9G A87G] | 1.15 |
| GGCCGGCAGGGUCCCAGCCUCCUCGCUGGCGCCGGCUGGGCAACAUUCCGAGGGGACCGUUCCCUCGGUAAUGGCGAAUGGGACCCA [U9G C61U] | 1.05 |
| GGCCGGCACGGUCCCAGCCUCCUCGCUGGCGCCGGCUGGGCAACAUUCCGAGGGGACCGUCCCCUCUGUAAUGGCGAAUGGGACCCA [U9C G67U] | 1.12 |
| GGCCGGCACGGUCCCAGCCUCCUCGCUGGCGCCGGCUGGGCAACAUUCCGAGGGGACCGUCCCCUCCGUAAUGGCGAAUGGGACCCA [U9C G67C] | 0.703 |
| GGCCGGCACGGUCCCAGCCUCCUCGCUGGCGCCGGCUGGGCAACAUUCCGAGGGGACCGUCCCCUCGGUAAUGGCGAAUGCGACCCA [U9C G81C] | 0.598 |
| GGCCGGCACGGUCCCAGCCUCCUCGCUGGCGCCGGCUGAGCAACAUUCCGAGGGGACCGUCCCCUCGGUAAUGGCGAAUGGGACCCA [U9C G39A] | 0.567 |
| GGCCGGCACGGUCCCAGCCUCCGCGCUGGCGCCGGCUGGGCAACAUUCCGAGGGGACCGUCCCCUCGGUAAUGGCGAAUGGGACCCA [U9C U23G] | 0.831 |
| GGCCGGCACGGUCCCAGCCUCCACGCUGGCGCCGGCUGGGCAACAUUCCGAGGGGACCGUCCCCUCGGUAAUGGCGAAUGGGACCCA [U9C U23A] | 1.13 |
| GGCCGGCAGGGUGCCAGCCUCCUCGCUGGCGCCGGCUGGGCAACAUUCCGAGGGGACCGUCCCCUCGGUAAUGGCGAAUGGGACCCA [U9G C13G] | 0.111 |
| GGCCGGCACGGUCCCAGCCUCCUCGCUGGCGCCGGCUGGGCAACAUUCCGAGGGGACCGUCCCCUCGGUAAAGGCGAAUGGGACCCA [U9C U72A] | 0.587 |
| GGCCGGCACGGUCCCAGCCUCCUCGCUGGCGCCGGCUGGGCAACAUUCCGAGGGGACCGUCCCCUCGGUAAUGGCGAAAGGGACCCA [U9C U79A] | 0.831 |
| GGCCGGCACGGUCCCAGCCUCCUCGCUGGCGCCGGCUGGGCAACAUUCCGAAGGGACCGUCCCCUCGGUAAUGGCGAAUGGGACCCA [U9C G52A] | 1.04 |
| GGCCGGCACGGUCCCAGCCUCCUCGCUGGCGCCGGCUGGGCAACAUUCCGAUGGGACCGUCCCCUCGGUAAUGGCGAAUGGGACCCA [U9C G52U] | 1.06 |
| GGCCGGCAGGGUCCCAGCCUCCUCGCUGGCGCCGGCUGGGCAACAUUCCGAGGGGACCGUCCCCUCGGUCAUGGCGAAUGGGACCCA [U9G A70C] | 0.886 |
| GGCCGGCAGGGUCCCAGCCUCCUCGCUGGCGCCGGCUGGGCAACAUUCCGAGGGGACCGUCCCCUCGGUUAUGGCGAAUGGGACCCA [U9G A70U] | 0.739 |
| GGCCGGCACGGUCCCAGCCUCCUCGCUGGCGCCGGCUGGGCAACAUUCCGAGGGGACCGUCCCCUCGGUAAUGGCGAAUGGAACCCA [U9C G82A] | 0.266 |
| GGCCGGCACGGUCCCAGCCUCCUCGCUGGCGCCGGCUGGGCAACAUUCCGAGGGGACCGUCCCCUCGGUAAUGGCGAAUGGCACCCA [U9C G82C] | 0.262 |
| GGCCGGCACGGUCCCAGCCUCCUCGCUGGCGCCUGCUGGGCAACAUUCCGAGGGGACCGUCCCCUCGGUAAUGGCGAAUGGGACCCA [U9C G34U] | 0.178 |
| GGCCGGCACGGUCCCAGCCUCCUCGCUGGCGCCGGCAGGGCAACAUUCCGAGGGGACCGUCCCCUCGGUAAUGGCGAAUGGGACCCA [U9C U37A] | 0.289 |

| Variant | self-cleavage |
| --- | --- |
| GGCCGGCACGGUCCCAGCCUCCUCGCUGGCGCCGGCGGGGCAACAUUCCGAGGGGACCGUCCCCUCGGUAAUGGCGAAUGGGACCCA [U9C U37G] | 0 |
| GGCCGGCAGGGUCCCAGCCUCCUCGCUGGCGCCGGCUGGGCAACAUUCCGAGGGGAUCGUCCCCUCGGUAAUGGCGAAUGGGACCCA [U9G C57U] | 1.03 |
| GGCCGGCAGGGUCCCAGCCUCCUCGCUGGCGCCGGCUGGGAAACAUUCCGAGGGGACCGUCCCCUCGGUAAUGGCGAAUGGGACCCA [U9G C41A] | 0.831 |
| GGCCGGCAGGGUCCCAGCCUCCUCGCUGGCGCCGGCUGGGUAACAUUCCGAGGGGACCGUCCCCUCGGUAAUGGCGAAUGGGACCCA [U9G C41U] | 0.997 |
| GGCCGGCAGGGUCCCAGCCUCCUCGCUGGCGCCGGCUGGGCAACAUUCCGAGGGGACCGUCCCCUCGGUAAUGGCGAUUGGGACCCA [U9G A78U] | 0.0692 |
| GGCCGGCACGGUCCCAGCCUCCUCGCUGGCGCCGUCUGGGCAACAUUCCGAGGGGACCGUCCCCUCGGUAAUGGCGAAUGGGACCCA [U9C G35U] | 0.135 |
| GGCCGGCACGGUCCCAGCCUCCUCGCUGGCGCCGACUGGGCAACAUUCCGAGGGGACCGUCCCCUCGGUAAUGGCGAAUGGGACCCA [U9C G35A] | 0.394 |
| GGCCGGCAGGGUCCCAGCCUCCUCGAUGGCGCCGGCUGGGCAACAUUCCGAGGGGACCGUCCCCUCGGUAAUGGCGAAUGGGACCCA [U9G C26A] | 1.23 |
| GGCCGGCAGGGUCCCAGCCUCCUCGUUGGCGCCGGCUGGGCAACAUUCCGAGGGGACCGUCCCCUCGGUAAUGGCGAAUGGGACCCA [U9G C26U] | 0.554 |
| GGCCGGCAGGGUCCCAGCCUCCUCGCUGGCGCCGGCUGGGCUACAUUCCGAGGGGACCGUCCCCUCGGUAAUGGCGAAUGGGACCCA [U9G A42U] | 0.587 |
| GGCCGGCAGGGUCUCAGCCUCCUCGCUGGCGCCGGCUGGGCAACAUUCCGAGGGGACCGUCCCCUCGGUAAUGGCGAAUGGGACCCA [U9G C14U] | 1.08 |
| GGCCGGCAGGGUCGCAGCCUCCUCGCUGGCGCCGGCUGGGCAACAUUCCGAGGGGACCGUCCCCUCGGUAAUGGCGAAUGGGACCCA [U9G C14G] | 1.2 |
| GGCCGGCAGAGUCCCAGCCUCCUCGCUGGCGCCGGCUGGGCAACAUUCCGAGGGGACCGUCCCCUCGGUAAUGGCGAAUGGGACCCA [U9G G10A] | 1.25 |
| GGCCGGCAGGGUCCCAGCCUCCUCGCUGGCGCCGGCUGGGCAACAUUCCGAGGGGACCGUCCGCUCGGUAAUGGCGAAUGGGACCCA [U9G C63G] | 1.17 |
| GGCCGGCAGGGUCCCAGCCUCCUCGCUGGCGCCGGCUGGGCAACAUUCCGAGGGGACCGUCCCCUCGGUAAUGGCGAAUGGGACCGA [U9G C86G] | 1.33 |
| GGCCGGCAGGGUCCCAGCCUCCUCGCUGGCGCCGGCUGGGCAACAUUCCGAGGGGACCGUCCCCUCGGUAAUGGCGAAUGGGACCUA [U9G C86U] | 1.42 |
| GGCCGGCAGGGUCCCAGCCUCCUCGCUGGCGCCGGCUGGGCAACCUUCCGAGGGGACCGUCCCCUCGGUAAUGGCGAAUGGGACCCA [U9G A45C] | 0.712 |
| GGCCGGCACGGUCCCAGCCUCCUCGCUGGCGCCGGCUGGGCAACAUUCCGAGGGGACCGUCCCCUCGGUAAUGCCGAAUGGGACCCA [U9C G74C] | 0.277 |
| GGCCGGCAGGGUCCCAGCCUCCUGGCUGGCGCCGGCUGGGCAACAUUCCGAGGGGACCGUCCCCUCGGUAAUGGCGAAUGGGACCCA [U9G C24G] | 0.453 |
| GGCCGGCAGGGUCCCAGCCUCCUCGCUGGCGCCGGCUGGGCAACAUUCCGAGGGGACCGUCCCCUCGGUAAUGGCGGAUGGGACCCA [U9G A77G] | 0.767 |
